T1: CLL1 on the surface of cells (HL60, KG1, Hela-CLL1) (UniProt Q5QGZ9 1-265, limits assumed)
T1 construct: whole, on cells; HL60 and KG1 are human cell lines; also called CLEC12A; CD371
T1 sequence (looked up): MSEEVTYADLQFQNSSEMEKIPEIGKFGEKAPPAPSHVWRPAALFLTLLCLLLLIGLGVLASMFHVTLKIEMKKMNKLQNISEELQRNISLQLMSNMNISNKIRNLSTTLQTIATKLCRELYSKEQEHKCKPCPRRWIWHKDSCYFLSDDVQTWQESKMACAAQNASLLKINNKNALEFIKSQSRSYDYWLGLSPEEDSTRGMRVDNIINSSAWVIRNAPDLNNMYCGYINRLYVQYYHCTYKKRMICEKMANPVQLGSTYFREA

B1: scFv antibody M26 with the Fc fragment of murine IgG2a at the C-terminal (Fc fusion, not shown: a dimerising Fc or GST; small tags and cut ends)
scFv: EVQLQQSGPELVKPGASVKMSCKASGYTFTSYFIHWVKQKPGQGLEWIGFINPYNDGSKYNEKFKGKATLTSDKSSSTAYMELSSLTSEDSAVYYCTRDDGYYGYAMDYWGQGTSVTVSSGGGGSGGGGSGGGGSDIQMTQSPSSLSASLGERVSLTCRATQELSGYLSWLQQKPDGTIKRLIYAASTLDSGVPKRFSGNRSGSDYSLTISSLESEDFADYYCLQYAIYPYTFGGGTKLEIK
notes: also called M26 scFv
B2: C9 single-domain antibody with the Fc fragment of murine IgG2a at the C-terminal (Fc fusion, not shown: a dimerising Fc or GST; small tags and cut ends)
VHH: QVQLVESGGGLVQPGGSLRLSCAASGFTFSSYAMGWARQVPGKDVEWVSGIYSDGSTYYADSVKGRFTISRYNAKNTVYLQMNSLKPEDTAVYYCATDPTLENQTTAWGQGTQVTVSS
notes: also called C9 VHH-mIgG2aFc
B3: C1 single-domain antibody with the Fc fragment of murine IgG2a at the C-terminal (Fc fusion)
chain: QVQLVESGGGLVQPGGSLRLSCAASGFTFSSKTMGWARQVPGKAIEWLSGIYSDGSTYYADSVKGRFTISRDNAKNMVYLQMNSLKPEDTAVYYCATEDLTSYGRGTQVTVSS
notes: also called C1 VHH-mIgG2aFc; not shown: Fc fragment of murine IgG2a, added to the C-terminal of the VHH
B4: C3 single-domain antibody with the Fc fragment of murine IgG2a at the C-terminal (Fc fusion, not shown: a dimerising Fc or GST; small tags and cut ends)
VHH: QVQLVESGGGLVQPGGSLRLSCAASGFTFSSYAMGWARQVPGKEVEWVSGIYSDGRTYYADSVKGRFTISRDNAKNEVYLQMNSLKPEDTAVYYCAPEPGQGVGDYWGQGTQVTVSS
notes: also called C3 VHH-mIgG2aFc
B5: C5 single-domain antibody with the Fc fragment of murine IgG2a at the C-terminal (Fc fusion, not shown: a dimerising Fc or GST; small tags and cut ends)
VHH: QVQLVESGGGLVQPGGSLRLSCAASGFTFSSYDMGWARQVPGKAVEWVSGIYSDGSTYYADSVKGRFTISRDNAKNTVYLQMNSLKPEDTAVYYCATDPLTSELRSWGQGTQVTVSS
notes: also called C5 VHH-mIgG2aFc
B6: C7 single-domain antibody with the Fc fragment of murine IgG2a at the C-terminal (Fc fusion, not shown: a dimerising Fc or GST; small tags and cut ends)
VHH: QVQLVESGGGLVQPGGSLRLSCAASGFTFSSYAMGWARQVPGKEVEWVSGIYSDGSTNYADSVKGRFTISRDNAKNTVYLQMNSLRPEDTAVYHCATDPTVHSDLPVWGQGTLVTVSS
notes: also called C7 VHH-mIgG2aFc

Each binder was assayed against T1, CLL1 on the surface of cells (HL60, …) (assay: flow cytometry, serial dilution of scFv-mIgG2a Fc on HL60 cells (comparator, weaker signal)).

binding result	Binder
binds	B1

These binders were tested against T1, CLL1 on the surface of cells (HL60, …) (assay: flow cytometry, serial dilution of VHH-mIgG2a Fc on HL60 cells).

binding result	Binder
binds	B2
binds	B3
binds	B4
binds	B5
binds	B6
